In the nanobody polyreactivity screen of Harvey et al. (2022):

Assay: yeast display, Sf9 membrane polyspecificity reagent, FACS + sequencing; frameworks hold sequencing errors
Procedure, shortened: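 Nanobodies came from a synthetic yeast display library in Saccharomyces cerevisiae BJ5465, induced with galactose for 36–48 hours and stained for 1 hour at 4 °C with 10% biotinylated, detergent-solubilized Sf9 membrane reagent. Cells were enriched on streptavidin microbeads and then FACS-sorted, with low and high (top ~1%) gates set on anti-HA fluorescence for expression and streptavidin fluorescence for reagent binding. Each polyreactivity label reflects the gate a clone came from. Genes were amplified by colony PCR, sequenced by MiSeq 2 × 250 and filtered by CDR length.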

Row | Sequence | polyreactivity (PSR sort gate)
1 | QVQLEESGGGLVQAGGSLRLSCAASGIFSRYAMGWDRQAPGKERELVAAISSRGSTYYADSVKGRFTISRDNAKYTVYLQLNSMKPEDTGVYYCAATVGRGKLDYWGQGTQVNVSS | high polyreactivity
2 | QVQLEESGGGLVQAGGSLRLSCAASGIIFHEYALGWYRQAPGKERELDASISWNDGSTYADSVKGRFTISRDNAKNTVYLQMNSQKPEDTAVYYCAADYPYYPFSSIYDYWGQGTQVTVSS | low polyreactivity
3 | QVQLEESGGGLVQAGGSLRLSCAASGIIFRCYCMGWYRQAPGKDRELVATITSGGRTNYADSVKGRFTISRDKAKNTVYLQMNSLNTEDTAVYYCAAARLFAMDYWGQGTQVTVSS | low polyreactivity
4 | QVQLEESGGGLVQAGGSLRLSCAASGIIFRLYAMGRYRQAPGKERELVAAISSGGSTNYADSVKGRFTISRDNAKNTVYLQMNSLKPEDTAVYYCAAGKAHNYDYWGQGTQVTVSS | low polyreactivity
5 | QVQLEESGGGLVQAGGSLRLSCAASGIISTYYVMGWYRQAPGKERELVAAITGGDSSTYYADSVKGRFTISRDTAKNTVYLQMNSLIPDDTAVYYCAKEYYYARGARYDYWGQGTQVTVSS | low polyreactivity
6 | QVQLEESGGGLVQAGGSLRLSCAASGITFDDYTMGWYRQAPGKERELVAAITRSGGSTYYADSVKGRFTISRDTAKITVSLQMNSLKPEDTAVYYCSRVKGRGFKNGYWGQGTKVTVSS | high polyreactivity
7 | QVQLEESGGGLVQAGGSLRLSCAASGITFLNYAMGWYRQATGKERELVAAISWSGGRTYYADSVKGRFTISRDNAKNTVYLQMNSLKPEDTAVYYCAVRGSWYSEHNYWGQGTQVTVSS | high polyreactivity
8 | QVQLEESGGGLVQAGGSLRLSCAASGITFNSYAMGSYRQAPGKERELVAAISGSGSSTYYADSVKGRFTISRDNAKNTVYLQMTSLKPEDTAVYYCAATGYSSWTFYTHEYWGQGTQVTVSS | low polyreactivity
9 | QVQLEESGGGLVQAGGSLRLSCAASGLIFITYAMGWYRQAPGKERELVATITLRGGSTYYADSVKGRFTISRDNAKNTVYLQMNSLKPEDTAVYYCAADVGYWGRSRGYPSDDYDYWGQGTQVTVSS | low polyreactivity
10 | QVQLEESGGGLVQAGGSLRLSCAASGLIYSSYAMGWYRQAPGKERELVAAIRSGGNTNYADSVKGRFTISRDNAKNTVYLQMNSLKPEDTAVYYCADGTYSRPYYRTFDHWGQGTQVTVSS | low polyreactivity
11 | QVQLEESGGGLVQAGGSLRLSCAASGNTFYKYTMGWYRQAPGKERELLAAITWSGGSTYYADSVKGRFTISRDNAKNTVYLQMNSLKPEDTAVYYCNADDYQYKTWYHLDYWGQGTQVTVSS | low polyreactivity
12 | QVQLEESGGGLVQAGGSLRLSCAASGNTSPVNAMGWYRQAPGKERELVAAITQSGGSTYYADSLKGRFTISRDNAKITVYFQMNSLKPQDTAVYYCAADVLGPQYWWYDYWGQGTQVTVSS | low polyreactivity
13 | QVQLEESGGGLVQAGGSLRLSCAASGRIFGGNAMGWYRQAPGKERELVAAINSSGGRTYYADSLKGRFTISRDNAKYTVYLQMNSLKTEDTAVYYCSARVVGNWYDYWGQGTQVTVSS | high polyreactivity
14 | QVQLEESGGGLVQAGGSLRLSCAASGRIFGRNARGWYRQAPVKERELVAAISWRGGNTYYADSVKGRFTISRDNAKNTVYLQMKSLKAEDTAFYYCNTVQSRNEMGYWGQGTQVTVSS | high polyreactivity
15 | QVQLEESGGGLVQAGGSLRLSCAASGRIFGSYAMGWYRQAAGNERELVAAITRSGGSTYYADSVKGRFTISRDNAKNTVYLQMNSLTPEDTAVYYCAAYFRFSGSAKFGYWGQGTQVTVSS | high polyreactivity
16 | QVQLEESGGGLVQAGGSLRLSCAASGRIFGVNAMGWYRQAPGKERELVAAIRYSGGSTYYADSVKGRFTISRDNAKNTVYLQMNSLKPEDTAVYYCARDVWNYWDGVFQYYSYDFDYWGQGTQVTVSS | low polyreactivity
17 | QVQLEESGGGLVQAGGSLRLSCAASGRIFRANAMGRYRQAPGKERELVADITRRGASTYYADSVKGRFTISRDNAKNTVYLQMNSLKPEDTAVYYCNARGWPSSLLYLRDRYQMDYWGQGTQVTVSS | low polyreactivity
18 | QVQLEESGGGLVQAGGSLRLSCAASGRIFRANSMGWYRQEPGKERELVAAISFSGGGTYYADSVKGRFKISRDNAKNTVYLQMNCLKPEDTAVYYCAADWYVYSPYDYWGQGTQVTVSS | low polyreactivity
19 | QVQLEESGGGLVQAGGSLRLSCAASGRIFSRYAMGWYRQAPGKERELVAAITQSGTSTYYADSVKGRFTISRDNAKNTVYLQMTSLKPEDTAVYYCNAYRQYRYDYWGQGTQVTVSS | low polyreactivity
20 | QVQLEESGGGLVQAGGSLRLSCAASGRIFYRYAMGWYRQAPGKERELVAAISSGGSTYYADSVKGRFTISRDNAKNTVYLQMNSLKPDDTAVYYCAATWGRGTYYLYYYWGQGTQVTVSS | high polyreactivity
21 | QVQLEESGGGLVQAGGSLRLSCAASGRLFGDNAMGWYSQAPGKERELVAAISDSGGSTYYADSVKGRFTISRDNAKNTVYLQMNSLKPEDTAVYYCAAEYIVRWYWYYYWGQGTQVTVSS | high polyreactivity
22 | QVQLEESGGGLVQAGGSLRLSCAASGRPCWLMLWDGIDRRLGKKGSWLPLTASTYYADSVKGRFTISRDNAKNTVYLQMNSLKPEDTAVYYCAADLYYGDYRTLPIADEYDYWGQGTQVTVSS | low polyreactivity

Row | Sequence | polyreactivity (PSR sort gate)
23 | QVQLEESGGGLVQAGGSLRLSCAASGRTFALYAMGWYRQAPGKERELVASISWRGGSTYYADSVKGRFTISRDNAKNTVYLQMNSLKPEDTAVYYCAADTWSYGPLNYRLEYWGQGTQVTVSS | low polyreactivity
24 | QVQLEESGGGLVQAGGSLRLSCAASGRTFAYYFMGWYRQAPGKERQLVAAISGSGGSTYYADSVKGRFTISRDNAKNTVYLQMNSLKPEDTAVYYCAAQYAYGGYDYWGQGTQVTVSS | high polyreactivity
25 | QVQLEESGGGLVQAGGSLRLSCAASGRTFDRNTMGWYRQAPGKERELVASITSSGASTYYADSVKGRFTISRDNAKNTVYLQINSLKPVDTSVYYCAARTYTGNYSNSKYYYWGQGTEVTVSS | high polyreactivity
26 | QVQLEESGGGLVQAGGSLRLSCAASGRTFGVYAMGWYRQAPGKERELVAGIRWRGGSTYYADSVKGRFTISRDNAKNTVYLQMNSLKPEDTAVYYCAADVYLVKYDYWGQGTQVTVSS | low polyreactivity
27 | QVQLEESGGGLVQAGGSLRLSCAASGRTFIKYAMGWYRQAPVNESELVAAITYSAGSTSYADSVKGRFTISRDNAKNTVYLQMNSRKPVDTAVYYCARRTRSYGYRSDYYYWGQGTQVTVSS | low polyreactivity
28 | QVQLEESGGGLVQAGGSLRLSCAASGRTFRTYTMGWYRQAPGTERELVAANSKRGSSTYYADSVKGRFTISRDNAKNTVYLQMNSLKPEDTAVYYCAARSWLSNSPYGYWGQGTQVTVSS | high polyreactivity
29 | QVQLEESGGGLVQAGGSLRLSCAASGRTFSYNAMGWYRQPPGKEREFVAAITWRGSSTYYADSVKWRFTISRDYEKNTVYLQMNSLIPDDTAVYECNARATNVIWGRYDYWGQGTQVTVSS | high polyreactivity
30 | QVQLEESGGGLVQAGGSLRLSCAASGRTFTLNAMGWYRQAPGKEREFVAAISNSGVRTYYADSVKGRFTISRDNAKNTVYLQMNSLKPEDTAVYYCARTYQVGDSIDDYWGQGTQVTVSS | low polyreactivity
31 | QVQLEESGGGLVQAGGSLRLSCAASGRTFVYNTKGWYRQAPGKERELVAAITSSGGRTSYADSVKGRFTISRDNAKNTVYLQMNSLKPEDTAVYYCAKDRYTSSTQYRRYDYWGQGTQVTVSS | high polyreactivity
32 | QVQLEESGGGLVQAGGSLRLSCAASGRTFWVYAMGWYRQAPGKERELVAAISRSGVSTYYADSVKGRFTISRDNAKNTVYLQMNSLKPEDTAVYYWAAEARVQFSYDYWGQGTQVTVSS | low polyreactivity
33 | QVQLEESGGGLVQAGGSLRLSCAASGRTFYHYAMGWYRQAPGKERELVAGITDGTITTDADSVKGRFTISRDNAKNTVYLQMNSLKPEDTAVYYCNVGYSDWWRSWAMDYWGQGTQVTVSS | high polyreactivity
34 | QVQLEESGGGLVQAGGSLRLSCAASGSIFDTYAMGWYRQAPGNERELVAAISSGGRTYYADSVKGRFTISRDNAKNTVYLQMNSLKPEDTAVYYCNARYHARYGGDYWGQGTQVTVSS | high polyreactivity
35 | QVQLEESGGGLVQAGGSLRLSCAASGSIFDVYAIGWYRQAPGKERELVAGINSAGSTYYADSVKGRFTISRDNAKNTVYLQMNSLKPEDSAVYYCAAREYILTPGYQWYTYRGYDYWGQGTQVTVSS | low polyreactivity
36 | QVQLEESGGGLVQAGGSLRLSCAASGSIFGAYTMGWYRQAPGKERELVAAISIGGSKNYADSVKGRFTISRDNAKNTVYLQMNSLKPEDTAVYYCNAEPDLEDWWWAIGLYDYWGQGTQVTVSS | high polyreactivity
37 | QVQLEESGGGLVQAGGSLRLSCAASGSIFLGYAMGWYRQAPGKERELVAAITTVGSTNYADSVKGRFTISRDNAKNTVYLQMNSVKPEDTAVYYCAAGWVGWGEKYTLDYWGQGTQVTVSS | high polyreactivity
38 | QVQLEESGGGLVQAGGSLRLSCAASGSIFQQYAMGWYRQAPGKERELVAAISYSGGTTYYADSVKGRFTISRDNAKNTVYLQMNSLKPEDTAVDYCAAYYPSGSYDYYWGQGTQVTVSS | low polyreactivity
39 | QVQLEESGGGLVQAGGSLRLSCAASGSIFRGYAMGWYRQAPGKERELVAAITWGGGSTYADSVKGRFTISRDNAKNTVYLQMNSLKPEDTAVYYCAARYVSRYYVYRGFEYWGQGTQVTVSS | high polyreactivity
40 | QVQLEESGGGLVQAGGSLRLSCAASGSIFRPNAMGWYRQAPGKERELVASINSGSGSTYYADSVKGRFTISRDNAKNTVYLQMNSLKPEDTAVYYCNAAGAYPYYSEDYYWGQGTQVTVSS | low polyreactivity
41 | QVQLEESGGGLVQAGGSLRLSCAASGSIFYDYAMGWYRQAPGKERELVAAISKSDGSTYYADSVKGRFTISRDNAKNTVYLQMNSLKPEDTAVYYCNADLIYSYPPEYDYWGQGTQVTVSS | high polyreactivity
42 | QVQLEESGGGLVQAGGSLRLSCAASGSIIRYNAMGWYRQAPGKERELVAAISASGGRTHYADSVKGRFTISRDNAKNTVYLQMNSLKPEYTAVYYCAASTYRVTSLYGYWGQGTQVTVSS | high polyreactivity
43 | QVQLEESGGGLVQAGGSLRLSCAASGSTFDNNGMGWYRQATGKERELVASITFNVGSTYYADSVKGRFTMSRDNAKNTVYLQMNSLKPEDTAVYYCGADDLNLSQALGYDFWGQGTQVTVSS | low polyreactivity
